# Results as given in patent US20210379068A1, “METHODS AND MATERIALS FOR TREATING NEUROPSYCHIATRIC DISORDERS” (Mayo Foundation for Medical Education and Research, priority 2018, published 2021).
# Columns and labels:
# Assay type in all cases: in vivo, mouse
# obese C57BL/6 mice [1] = assay: Elevated plus maze, HFD mice treated with Reparixin; conditions: HFD C57BL/6 mice; Reparixin 30 mg/kg s.c. twice per day for 2 weeks vs non-treated
# Procedure: (§1) Reparixin L-lysine salt (MedChemExpress, #HY-15252) or L-Lysine hydrochloride (MedChemExpress, #HY-N0470) was dissolved in H2O was administered to obese C57BL/6 mice (fed for 2 months with high-fat diet) via subcutaneous injection (30 mg/kg) twice per day for 2 weeks. 2 hours after the last injection mice were tested in open field and elevated plus maze and afterwards dissected. A grey colored elevated plus maze apparatus was used. Two open arms (25×5 cm) and two closed arms (25×5 cm) were attached at right angles to a central platform (5×5 cm). The apparatus was set 40 cm above the floor. Mice were first acclimatized to the room for 1-1.5 hours. Mice were then placed individually on the central platform with their back to one of the open arms. Before the test, mice were habituated for 1 minute to the maze, then placed back in the home cage for 5 minutes. Mice were tested for 5 minutes during which they could freely explore the apparatus. Tracking software (Ethovision) recognizes mouse head, central body point, and the base of the tail. Anxiety was quantified by frequency of and time spent during head pokes/dips toward open arms. Higher anxiety is indicated by a lower frequency of movement into open arms and less time spent there.
# obese C57BL/6 mice [2] = assay: Open field test, HFD mice treated with Reparixin; conditions: HFD C57BL/6 mice; Reparixin 30 mg/kg s.c. twice per day for 2 weeks vs non-treated
# Procedure: (§2) Reparixin L-lysine salt (MedChemExpress, #HY-15252) or L-Lysine hydrochloride (MedChemExpress, #HY-N0470) was dissolved in H2O was administered to obese C57BL/6 mice (fed for 2 months with high-fat diet) via subcutaneous injection (30 mg/kg) twice per day for 2 weeks. 2 hours after the last injection mice were tested in open field and elevated plus maze and afterwards dissected. Locomotor activity and anxiety-like behavior of mice were assessed in sound-insulated, rectangular activity chambers (Med Associates Inc., St Albans, Vt., USA: W×L×D=27 cm×27 cm×20 cm with continually running fans, infrared lasers, and sensors). Beam breaks were assessed in 2-minute bins over 30 minutes, converted automatically to current mouse location and distance travelled (cm), and recorded on a computer with Med-PC software Version 4.0. Before the test, mice were acclimatized to the room for 1-1.5 hours before being introduced into the chambers. Mice were habituated for 5 minutes in the Open Field chamber (without recording) then placed for another 5 minutes in the home cage. Afterwards, mice were introduced back to the chambers and all mouse movements were recorded for 30 minutes. Anxiety was quantified by the distance mice travelled in the central 25% of the chamber (zone 1) as a function of the total distance mice travelled and by frequencies of entries into zone 1.
# lean C57BL/6 [3] = assay: Open field test after Cxcl1 injection; conditions: Cxcl1 5 μg/kg i.p. daily for 7 days vs vehicle
# Procedure: (§3) Recombinant CXCL1 (Peprotech, #250-11) or vehicle (PBS) was administered to lean C57BL/6 via i.p. injection (5 μg/kg in PBS) daily for 7 days. 2 hours after the last injection mice were tested in open field and elevated plus maze and afterwards dissected.
# as §2, with “Locomotor” for “Reparixin L-lysine salt (MedChemExpress, #HY-15252) or L-Lysine hydrochloride (MedChemExpress, #HY-N0470) was dissolved in H2O was administered to obese C57BL/6 mice (fed for 2 months with high-fat diet) via subcutaneous injection (30 mg/kg) twice per day for 2 weeks. 2 hours after the last injection mice were tested in open field and elevated plus maze and afterwards dissected. Locomotor”
# lean C57BL/6 [4] = assay: Elevated plus maze after Cxcl1 injection; conditions: Cxcl1 5 μg/kg i.p. daily for 7 days vs vehicle
# Procedure: as §3
# as §1, with “A” for “Reparixin L-lysine salt (MedChemExpress, #HY-15252) or L-Lysine hydrochloride (MedChemExpress, #HY-N0470) was dissolved in H2O was administered to obese C57BL/6 mice (fed for 2 months with high-fat diet) via subcutaneous injection (30 mg/kg) twice per day for 2 weeks. 2 hours after the last injection mice were tested in open field and elevated plus maze and afterwards dissected. A”
# [5] = Circulating Cxcl1 after Cxcl1 injection in lean C57BL/6 mice; conditions: Cxcl1 5 μg/kg i.p. daily for 7 days vs vehicle
# Procedure: as §3
# Serum levels of cytokines: Eotaxin, G-Csf, Tnf-α, Il-6, Ifn-γ, Il-1α, Il-1β, Il-17, Il-2, Kc/Cxcl1, Mcp-1, M-Csf, Mig, Mip-1α, and Mip-1β were determined using a Multiplexing LASER Bead Assay (Mouse Cytokine Array/Chemokine Array 31-Plex (MD31), Eve Technologies; Canada). Blood was withdrawn from mice by punctuation of the sub-mandibular vein at the day of dissection before an animal was sacrificed. 50 μL of serum were shipped to Eve Technologies on dry ice. Due to high variability of data an unbiased elimination of outliers was performed using ROUT's method (Graphpad 7 Prism). The same panel was used to detect SASP in MAF and 50 μl of media was shipped to Eve Technologies on dry ice.
Molecule,behavior in the EPM (obese C57BL/6 mice [1]),behavior in the open field box (obese C57BL/6 mice [2]),"anxiety-like behavior, open field (distance in the central area) (lean C57BL/6 [3])","anxiety-like behavior, open field (distance in the central area) (lean C57BL/6 [3]; listed as Cxcl-1)","anxiety-like behavior, EPM (head entries in the open arms) (lean C57BL/6 [4])","anxiety-like behavior, EPM (head entries in the open arms) (lean C57BL/6 [4]; listed as Cxcl-1)",circulating Cxcl1 in blood plasma [5],circulating Cxcl1 in blood plasma ([5]; listed as Cxcl-1)
CC(C)Cc1ccc([C@@H](C)C(=O)NS(C)(=O)=O)cc1 [Reparixin],no difference,no difference,,,,,,
"Cxcl1: Recombinant CXCL1 (Peprotech, #250-11) injected i.p. into lean mice (protein, UniProt P12850 25-96, looked up) Growth-regulated alpha protein: APIANELRCQCLQTMAGIHLKNIQSLKVLPSGPHCTQTEVIATLKNGREACLDPEAPLVQKIVQKMLKGVPK",,,no difference,not different,no difference,not different,increased levels,significantly increased
